{
  "source": "paper PMC10502657",
  "about": "(Advanced Science, 2023)",
  "key": {"Flag–p53": {"target": "T1, Flag–p53 (UniProt P04637 1-393)", "T1 construct": "p53; also called Flag-tagged p53; source: HEK293T, transfected, in lysate", "T1 sequence (P04637 whole entry, the tested form may be a part)": "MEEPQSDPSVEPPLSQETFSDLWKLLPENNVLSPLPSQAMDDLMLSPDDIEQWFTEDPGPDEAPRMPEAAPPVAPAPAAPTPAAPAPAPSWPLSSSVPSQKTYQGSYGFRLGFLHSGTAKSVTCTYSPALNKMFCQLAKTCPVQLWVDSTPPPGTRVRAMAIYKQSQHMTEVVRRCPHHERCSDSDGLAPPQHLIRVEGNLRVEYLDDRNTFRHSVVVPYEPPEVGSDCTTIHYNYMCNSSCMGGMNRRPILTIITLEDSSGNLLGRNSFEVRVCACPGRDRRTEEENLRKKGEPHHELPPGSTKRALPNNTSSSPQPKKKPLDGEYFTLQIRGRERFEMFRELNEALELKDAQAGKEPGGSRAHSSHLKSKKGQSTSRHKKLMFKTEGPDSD", "assay": "pull-down; GST-fusion proteins immobilised on glutathione beads incubated with purified Flag-tagged proteins in 50 mM Tris-HCl pH 7.4, 150 mM NaCl, 0.5% Triton X-100 for 4 h at 4 °C; western blot", "details": "both partners purified"}, "Flag–USP7": {"target": "T2, Flag–USP7 (UniProt Q93009 1-1102)", "T2 construct": "ubiquitin-specific protease 7 (USP7); also called Flag-tagged USP7; source: HEK293T, transfected, in lysate", "T2 sequence (Q93009 whole entry, the tested form may be a part)": "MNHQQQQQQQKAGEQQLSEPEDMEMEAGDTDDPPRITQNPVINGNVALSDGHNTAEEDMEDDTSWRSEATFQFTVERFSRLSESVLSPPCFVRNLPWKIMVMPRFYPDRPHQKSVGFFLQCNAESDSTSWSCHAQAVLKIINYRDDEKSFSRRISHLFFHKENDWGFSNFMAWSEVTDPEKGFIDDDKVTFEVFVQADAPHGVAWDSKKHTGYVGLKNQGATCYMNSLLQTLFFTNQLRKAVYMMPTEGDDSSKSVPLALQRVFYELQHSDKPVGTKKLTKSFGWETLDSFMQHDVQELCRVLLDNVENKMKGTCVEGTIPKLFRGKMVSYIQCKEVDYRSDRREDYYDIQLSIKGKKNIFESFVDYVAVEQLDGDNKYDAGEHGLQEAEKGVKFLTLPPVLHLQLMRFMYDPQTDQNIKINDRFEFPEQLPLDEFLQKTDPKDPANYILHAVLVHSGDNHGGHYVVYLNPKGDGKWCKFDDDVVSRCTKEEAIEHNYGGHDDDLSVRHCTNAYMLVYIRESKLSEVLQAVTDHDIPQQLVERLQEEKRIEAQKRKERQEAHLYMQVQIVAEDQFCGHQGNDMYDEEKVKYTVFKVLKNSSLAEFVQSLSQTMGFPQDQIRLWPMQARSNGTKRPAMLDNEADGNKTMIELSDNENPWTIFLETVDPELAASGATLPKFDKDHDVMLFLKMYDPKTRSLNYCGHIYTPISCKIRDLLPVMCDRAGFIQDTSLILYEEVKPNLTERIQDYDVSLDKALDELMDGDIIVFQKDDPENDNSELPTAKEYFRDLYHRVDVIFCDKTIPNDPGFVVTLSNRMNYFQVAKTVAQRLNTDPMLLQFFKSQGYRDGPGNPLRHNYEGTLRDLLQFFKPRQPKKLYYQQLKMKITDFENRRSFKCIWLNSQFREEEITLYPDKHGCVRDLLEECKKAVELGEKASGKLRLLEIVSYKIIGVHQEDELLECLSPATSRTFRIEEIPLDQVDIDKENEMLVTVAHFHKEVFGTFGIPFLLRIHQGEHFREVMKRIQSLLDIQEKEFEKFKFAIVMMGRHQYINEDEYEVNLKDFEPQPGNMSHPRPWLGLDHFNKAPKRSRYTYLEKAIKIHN", "assay": "pull-down; GST-fusion proteins immobilised on glutathione beads incubated with purified Flag-tagged proteins in 50 mM Tris-HCl pH 7.4, 150 mM NaCl, 0.5% Triton X-100 for 4 h at 4 °C; western blot", "details": "both partners purified"}},
  "data": [
    {"binder": "GST–MLF2 (natural protein, UniProt Q15773 1-248, looked up, myeloid leukemia factor 2 (MLF2); also called glutathione-S-transferase (GST) tagged MLF2) MFRFMRDVEPEDPMFLMDPFAIHRQHMSRMLSGGFGYSPFLSITDGNMPGTRPASRRMQQAGAVSPFGMLGMSGGFMDMFGMMNDMIGNMEHMTAGGNCQTFSSSTVISYSNTGDGAPKVYQETSEMRSAPGGIRETRRTVRDSDSGLEQMSIGHHIRDRAHILQRSRNHRTGDQEERQDYINLDESEAAAFDDEWRRETSRFRQQRPLEFRRLESSGAGGRRAEGPPRLAIQGPEDSPSRQSRRYDW", "values": [
      {"measurement": "binding result", "setting": "Flag–p53", "result": "binds"},
      {"measurement": "binding result", "setting": "Flag–USP7", "result": "binds"}
    ]}
  ]
}
